pKd: −log10 of the molar value.
Target: GST-tagged Nup358-IR (Nup358 internal repeat/E3 ligase domain) (UniProt P49792)
Test: SPR

Substance: SUMO-1 modified His-RanGAP1-NΔ419 (from UniProt P46061 420-589; P63165 1-97)
- pKd: 8.15

Substance: SUMO-1/2 chimera modified His-RanGAP1-NΔ419 (from UniProt P46061 420-589; P63165 1-30; P55854 26-46; P63165 52-97)
- pKd: 7.70

Substance: SUMO-2 modified His-RanGAP1-NΔ419 (from UniProt P46061 420-589; P55854 1-92)
- pKd: 7.44

Source: article PMC2668917
